For one molecule, Median Channel of Fluorescence of HLA-A2 Expression on T2 (median channel of fluorescence) results are on record in US20060045881A1, “Anti-cancer vaccines” (Board of Regents, The University of Texas System, priority 2004, published 2006).

For this assay, the target named is HLA-A2.1 (HLA-A*0201) on the surface of T2 cells (human).

B1: Influenza B nucleoprotein peptide (aa 85-94), P04665 85-94 (peptide)
peptide: KLGEFYNQMM
modifications: not checked
B1 displayed a Median Channel of Fluorescence of HLA-A2 Expression on T2 (median channel of fluorescence) of 194.
